Several values for one entry are separate records, joined by “and”; a condition that tells them apart may be missing. Equal entries are not always repeated. Where two headings read alike, the source gives them in different places. No end group written: not given here. fluorescein = fluorescein (N-terminal fluorescent label on the UBE3A peptide)
What was measured:
[1] = target: biotinylated MBP-fused HERC2 RLD2 domain (residues 2941-3342) (human) (UniProt O95714); test: native holdup assay
[2] = target: T1, HERC2 RLD2 domain (residues 2941-3342), untagged (human, UniProt O95714 2941-3342); test: fluorescence polarisation
T1 sequence (looked up): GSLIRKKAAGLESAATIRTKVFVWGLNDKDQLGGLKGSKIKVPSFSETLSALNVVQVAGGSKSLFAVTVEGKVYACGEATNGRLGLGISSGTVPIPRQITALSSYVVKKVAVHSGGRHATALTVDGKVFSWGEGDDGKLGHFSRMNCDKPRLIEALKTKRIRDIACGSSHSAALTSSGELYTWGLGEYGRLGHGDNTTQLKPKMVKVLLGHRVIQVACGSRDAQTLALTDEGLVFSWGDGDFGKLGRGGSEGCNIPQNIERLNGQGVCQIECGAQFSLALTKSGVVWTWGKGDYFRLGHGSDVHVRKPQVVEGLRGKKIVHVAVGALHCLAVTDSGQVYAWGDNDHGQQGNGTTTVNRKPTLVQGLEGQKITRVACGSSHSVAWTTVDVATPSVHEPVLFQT

[3] = target: T2, endogenous full-length HERC2 (human (endogenous in SH-SY5Y), UniProt O95714 1-4834); test: native holdup assay
T2 sequence (O95714 whole entry): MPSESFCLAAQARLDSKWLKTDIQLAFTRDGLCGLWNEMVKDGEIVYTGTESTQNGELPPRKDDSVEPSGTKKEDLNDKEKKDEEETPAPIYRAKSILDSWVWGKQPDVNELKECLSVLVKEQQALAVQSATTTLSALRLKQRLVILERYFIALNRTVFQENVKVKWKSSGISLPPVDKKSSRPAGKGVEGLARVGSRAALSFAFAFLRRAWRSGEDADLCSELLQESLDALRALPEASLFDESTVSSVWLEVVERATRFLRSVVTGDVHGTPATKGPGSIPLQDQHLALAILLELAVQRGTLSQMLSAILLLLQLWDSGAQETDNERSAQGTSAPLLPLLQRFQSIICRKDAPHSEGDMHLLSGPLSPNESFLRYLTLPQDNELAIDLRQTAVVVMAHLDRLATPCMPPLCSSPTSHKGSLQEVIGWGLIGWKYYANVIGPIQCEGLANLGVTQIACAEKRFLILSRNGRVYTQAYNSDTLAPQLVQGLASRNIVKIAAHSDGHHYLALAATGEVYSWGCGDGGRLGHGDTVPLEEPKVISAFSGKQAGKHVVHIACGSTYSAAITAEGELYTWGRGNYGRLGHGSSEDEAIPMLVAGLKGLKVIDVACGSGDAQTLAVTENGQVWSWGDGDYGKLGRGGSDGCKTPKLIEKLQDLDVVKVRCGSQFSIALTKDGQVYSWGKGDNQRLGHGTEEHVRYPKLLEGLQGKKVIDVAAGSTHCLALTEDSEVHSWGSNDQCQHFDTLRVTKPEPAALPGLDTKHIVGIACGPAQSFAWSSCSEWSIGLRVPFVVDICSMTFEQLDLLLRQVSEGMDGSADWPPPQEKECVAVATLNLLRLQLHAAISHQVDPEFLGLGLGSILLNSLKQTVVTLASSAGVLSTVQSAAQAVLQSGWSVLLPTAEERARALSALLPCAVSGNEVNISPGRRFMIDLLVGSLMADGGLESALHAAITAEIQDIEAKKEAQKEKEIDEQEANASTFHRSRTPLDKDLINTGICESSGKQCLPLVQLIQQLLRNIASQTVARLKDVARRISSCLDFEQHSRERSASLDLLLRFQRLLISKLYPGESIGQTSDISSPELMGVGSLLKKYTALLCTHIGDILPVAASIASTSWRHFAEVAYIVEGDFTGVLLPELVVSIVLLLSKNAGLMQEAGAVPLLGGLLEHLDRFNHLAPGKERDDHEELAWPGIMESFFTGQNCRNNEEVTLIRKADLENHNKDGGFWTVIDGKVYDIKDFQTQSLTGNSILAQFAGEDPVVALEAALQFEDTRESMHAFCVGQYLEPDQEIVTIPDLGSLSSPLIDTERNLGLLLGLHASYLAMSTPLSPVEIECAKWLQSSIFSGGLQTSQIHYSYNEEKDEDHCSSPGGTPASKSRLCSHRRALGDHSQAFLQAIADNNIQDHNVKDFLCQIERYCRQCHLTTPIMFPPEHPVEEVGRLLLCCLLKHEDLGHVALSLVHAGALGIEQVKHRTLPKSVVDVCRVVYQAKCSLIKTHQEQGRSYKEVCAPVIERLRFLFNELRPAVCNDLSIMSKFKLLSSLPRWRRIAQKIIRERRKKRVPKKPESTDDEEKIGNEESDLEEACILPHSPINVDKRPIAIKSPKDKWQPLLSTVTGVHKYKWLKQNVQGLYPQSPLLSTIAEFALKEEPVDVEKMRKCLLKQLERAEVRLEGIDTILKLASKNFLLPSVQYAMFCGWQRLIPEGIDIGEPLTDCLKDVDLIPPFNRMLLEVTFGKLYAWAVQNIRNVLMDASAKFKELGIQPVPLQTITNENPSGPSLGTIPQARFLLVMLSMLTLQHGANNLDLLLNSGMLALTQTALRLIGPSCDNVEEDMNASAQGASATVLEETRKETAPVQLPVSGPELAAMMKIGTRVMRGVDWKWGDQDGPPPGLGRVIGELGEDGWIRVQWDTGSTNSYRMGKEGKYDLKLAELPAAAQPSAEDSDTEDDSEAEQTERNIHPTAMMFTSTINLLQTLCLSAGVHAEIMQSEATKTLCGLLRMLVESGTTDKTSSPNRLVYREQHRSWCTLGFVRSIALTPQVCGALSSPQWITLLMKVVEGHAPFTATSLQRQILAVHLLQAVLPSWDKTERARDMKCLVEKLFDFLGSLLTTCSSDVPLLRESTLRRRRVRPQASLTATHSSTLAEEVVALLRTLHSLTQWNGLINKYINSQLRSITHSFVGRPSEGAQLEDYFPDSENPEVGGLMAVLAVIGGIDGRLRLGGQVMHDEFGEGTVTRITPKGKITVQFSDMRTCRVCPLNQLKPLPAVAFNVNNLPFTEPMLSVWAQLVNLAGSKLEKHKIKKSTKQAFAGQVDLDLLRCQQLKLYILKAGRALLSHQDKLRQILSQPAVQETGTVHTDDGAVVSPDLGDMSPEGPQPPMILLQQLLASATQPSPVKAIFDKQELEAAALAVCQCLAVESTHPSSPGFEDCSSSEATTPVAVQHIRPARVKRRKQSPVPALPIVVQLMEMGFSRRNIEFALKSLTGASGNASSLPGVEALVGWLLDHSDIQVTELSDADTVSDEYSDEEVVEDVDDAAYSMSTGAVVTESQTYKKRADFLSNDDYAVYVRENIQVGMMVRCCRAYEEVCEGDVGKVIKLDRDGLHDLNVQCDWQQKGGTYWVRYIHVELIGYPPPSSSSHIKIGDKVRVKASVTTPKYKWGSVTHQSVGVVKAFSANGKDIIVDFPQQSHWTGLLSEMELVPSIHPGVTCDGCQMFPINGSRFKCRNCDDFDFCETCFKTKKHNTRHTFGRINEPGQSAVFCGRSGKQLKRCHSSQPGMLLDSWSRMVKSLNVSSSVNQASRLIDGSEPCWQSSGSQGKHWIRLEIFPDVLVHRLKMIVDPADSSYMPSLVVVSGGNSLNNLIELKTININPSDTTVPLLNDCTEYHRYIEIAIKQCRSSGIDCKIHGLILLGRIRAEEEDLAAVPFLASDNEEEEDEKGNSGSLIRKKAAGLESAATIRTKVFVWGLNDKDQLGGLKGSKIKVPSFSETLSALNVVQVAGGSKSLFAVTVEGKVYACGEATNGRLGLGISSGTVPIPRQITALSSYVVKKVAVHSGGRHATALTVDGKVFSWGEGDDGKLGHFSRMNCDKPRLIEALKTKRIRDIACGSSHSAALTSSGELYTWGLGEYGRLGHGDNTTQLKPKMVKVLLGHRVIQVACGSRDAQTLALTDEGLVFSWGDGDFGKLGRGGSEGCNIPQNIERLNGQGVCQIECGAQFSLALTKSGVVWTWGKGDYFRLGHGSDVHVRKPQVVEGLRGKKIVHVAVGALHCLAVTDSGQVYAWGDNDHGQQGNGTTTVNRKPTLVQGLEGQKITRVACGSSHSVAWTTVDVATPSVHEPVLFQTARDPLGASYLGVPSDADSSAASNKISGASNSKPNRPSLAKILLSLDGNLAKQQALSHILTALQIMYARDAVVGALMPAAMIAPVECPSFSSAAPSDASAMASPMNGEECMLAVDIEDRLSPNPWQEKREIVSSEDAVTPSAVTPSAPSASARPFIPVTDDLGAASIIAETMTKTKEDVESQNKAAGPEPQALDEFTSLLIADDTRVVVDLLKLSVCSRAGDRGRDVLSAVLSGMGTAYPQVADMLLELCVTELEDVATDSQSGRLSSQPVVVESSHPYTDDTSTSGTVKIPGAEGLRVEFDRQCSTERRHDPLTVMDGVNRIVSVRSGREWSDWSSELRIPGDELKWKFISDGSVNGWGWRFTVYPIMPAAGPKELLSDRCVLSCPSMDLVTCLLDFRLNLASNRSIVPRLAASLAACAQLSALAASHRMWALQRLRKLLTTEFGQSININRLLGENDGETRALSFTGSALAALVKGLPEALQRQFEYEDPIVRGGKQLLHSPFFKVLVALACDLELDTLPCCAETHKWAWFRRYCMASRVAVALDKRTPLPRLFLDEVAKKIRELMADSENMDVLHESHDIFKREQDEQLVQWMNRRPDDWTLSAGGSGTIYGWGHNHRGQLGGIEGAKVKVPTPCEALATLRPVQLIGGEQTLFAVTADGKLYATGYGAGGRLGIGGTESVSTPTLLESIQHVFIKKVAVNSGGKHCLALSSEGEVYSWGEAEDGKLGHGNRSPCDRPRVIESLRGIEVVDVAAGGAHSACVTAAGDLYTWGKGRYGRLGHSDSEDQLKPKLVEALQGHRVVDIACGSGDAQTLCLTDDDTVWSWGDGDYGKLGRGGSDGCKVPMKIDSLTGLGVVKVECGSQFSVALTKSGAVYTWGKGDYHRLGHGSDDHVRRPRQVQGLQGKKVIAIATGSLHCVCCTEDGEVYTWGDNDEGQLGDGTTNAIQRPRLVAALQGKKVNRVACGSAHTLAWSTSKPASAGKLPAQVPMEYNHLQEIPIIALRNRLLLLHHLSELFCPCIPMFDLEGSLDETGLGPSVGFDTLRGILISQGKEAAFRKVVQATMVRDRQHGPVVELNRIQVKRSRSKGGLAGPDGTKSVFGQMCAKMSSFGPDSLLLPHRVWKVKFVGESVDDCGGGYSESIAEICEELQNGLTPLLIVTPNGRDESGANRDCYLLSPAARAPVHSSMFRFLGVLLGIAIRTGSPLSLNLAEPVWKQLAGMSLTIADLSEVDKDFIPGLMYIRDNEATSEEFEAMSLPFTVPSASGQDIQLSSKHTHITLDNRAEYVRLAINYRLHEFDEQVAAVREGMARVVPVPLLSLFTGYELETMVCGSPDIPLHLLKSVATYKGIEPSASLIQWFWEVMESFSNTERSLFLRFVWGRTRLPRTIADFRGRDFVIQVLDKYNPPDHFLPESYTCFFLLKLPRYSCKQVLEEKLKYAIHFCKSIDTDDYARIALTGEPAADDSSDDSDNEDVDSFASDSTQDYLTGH

[4] = target: T2, endogenous full-length HERC2; test: native holdup assay; remark: listed apart in the source
[5] = target: endogenous full-length PCM1 (human (endogenous in SH-SY5Y), UniProt Q15154 1-2024); test: native holdup assay
[6] = target: endogenous full-length UBE3A from SH-SY5Y cells (human (endogenous in SH-SY5Y), UniProt Q05086 1-875); test: native holdup assay
[7] = target: T3, endogenous full-length ARID4A (human (endogenous in SH-SY5Y), UniProt P29374 1-1257); test: native holdup assay
T3 sequence (looked up): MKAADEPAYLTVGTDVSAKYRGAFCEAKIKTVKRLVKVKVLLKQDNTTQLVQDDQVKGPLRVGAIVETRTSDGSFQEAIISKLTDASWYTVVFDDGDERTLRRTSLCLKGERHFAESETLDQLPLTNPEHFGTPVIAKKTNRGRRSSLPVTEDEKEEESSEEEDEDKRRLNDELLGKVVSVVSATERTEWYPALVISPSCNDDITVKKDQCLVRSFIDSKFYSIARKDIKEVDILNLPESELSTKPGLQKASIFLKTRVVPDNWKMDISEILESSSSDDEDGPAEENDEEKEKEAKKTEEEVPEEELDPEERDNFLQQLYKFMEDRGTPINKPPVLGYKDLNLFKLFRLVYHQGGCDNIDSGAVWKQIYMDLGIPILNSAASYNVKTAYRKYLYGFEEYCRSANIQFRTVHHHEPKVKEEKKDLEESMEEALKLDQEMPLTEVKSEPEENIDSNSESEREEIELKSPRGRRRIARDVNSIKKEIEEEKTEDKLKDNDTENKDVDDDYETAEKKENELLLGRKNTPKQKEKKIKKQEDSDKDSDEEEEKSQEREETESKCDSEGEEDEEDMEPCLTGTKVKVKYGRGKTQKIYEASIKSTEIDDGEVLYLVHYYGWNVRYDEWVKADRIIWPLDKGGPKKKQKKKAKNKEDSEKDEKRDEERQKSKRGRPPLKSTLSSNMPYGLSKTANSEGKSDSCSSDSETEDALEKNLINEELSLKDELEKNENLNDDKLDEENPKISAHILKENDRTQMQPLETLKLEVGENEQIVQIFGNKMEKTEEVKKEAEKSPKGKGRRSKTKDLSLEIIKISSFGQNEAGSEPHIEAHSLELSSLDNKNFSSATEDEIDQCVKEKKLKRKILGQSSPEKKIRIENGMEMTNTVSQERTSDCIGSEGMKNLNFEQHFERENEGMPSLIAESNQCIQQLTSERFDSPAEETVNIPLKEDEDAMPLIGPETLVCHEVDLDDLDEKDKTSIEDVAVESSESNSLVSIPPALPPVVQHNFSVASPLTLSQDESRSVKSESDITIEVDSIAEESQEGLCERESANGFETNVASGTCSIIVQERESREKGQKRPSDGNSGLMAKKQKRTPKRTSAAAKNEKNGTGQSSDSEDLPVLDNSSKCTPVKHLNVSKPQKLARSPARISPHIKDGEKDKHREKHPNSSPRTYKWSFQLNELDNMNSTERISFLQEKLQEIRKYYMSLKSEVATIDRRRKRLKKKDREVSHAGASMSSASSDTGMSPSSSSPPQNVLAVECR

[8] = target: endogenous full-length DOCK10 (human (endogenous in SH-SY5Y), UniProt Q96BY6 1-2186); test: native holdup assay
[9] = target: T4, endogenous full-length UBE3A from mouse brain (mouse (endogenous in mouse brain), UniProt O08759 1-870); test: native holdup assay
T4 sequence (looked up): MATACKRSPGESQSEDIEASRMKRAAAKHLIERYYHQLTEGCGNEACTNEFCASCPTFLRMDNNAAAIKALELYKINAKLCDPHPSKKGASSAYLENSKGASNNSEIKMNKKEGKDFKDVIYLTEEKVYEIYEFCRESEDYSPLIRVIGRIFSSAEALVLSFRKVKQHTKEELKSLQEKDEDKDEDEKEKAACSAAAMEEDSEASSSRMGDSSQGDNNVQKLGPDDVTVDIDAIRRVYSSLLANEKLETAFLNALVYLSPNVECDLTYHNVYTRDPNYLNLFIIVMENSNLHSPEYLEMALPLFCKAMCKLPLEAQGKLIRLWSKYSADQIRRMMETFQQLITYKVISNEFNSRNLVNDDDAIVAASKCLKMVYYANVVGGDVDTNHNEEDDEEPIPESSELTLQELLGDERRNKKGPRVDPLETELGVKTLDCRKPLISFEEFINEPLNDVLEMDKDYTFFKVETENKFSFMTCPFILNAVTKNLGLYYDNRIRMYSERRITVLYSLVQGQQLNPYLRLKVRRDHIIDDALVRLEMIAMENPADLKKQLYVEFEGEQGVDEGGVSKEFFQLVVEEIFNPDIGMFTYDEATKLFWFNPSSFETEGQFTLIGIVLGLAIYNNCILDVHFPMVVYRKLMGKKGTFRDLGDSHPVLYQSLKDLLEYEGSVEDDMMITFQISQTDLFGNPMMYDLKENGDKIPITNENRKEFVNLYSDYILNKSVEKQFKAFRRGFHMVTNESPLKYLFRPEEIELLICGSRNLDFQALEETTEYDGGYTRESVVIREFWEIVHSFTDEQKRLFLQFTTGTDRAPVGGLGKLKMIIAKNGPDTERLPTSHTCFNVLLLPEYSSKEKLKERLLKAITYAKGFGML

“endogenous full-length UBE3A from zebrafish embryos (enzyme)” was tested. Which Kd [1] did it give?
The Kd was 100 nM.

With “endogenous full-length MYT1 (from UniProt Q01538 1-1121) (natural protein)” as the molecule, how does the Kd [1] read?
The Kd was over 10000 nM.

B1: UBE3A 18-aa linked to fluorescein (peptide)
peptide: fluorescein-SLQAKDEDKDEDEKEKAA
Does B1 bind [2]?
Result: binds

B2: UBE3A peptide residues 150-200 (peptide, UniProt Q05086-2 150-200, looked up)
peptide: HTKEELKSLQAKDEDKDEDEKEKAACSAAAMEEDSEASSSRIGDSSQGDNN
Does B2 bind [2]?
Result: binds

B3: biotinylated UBE3A peptide containing amino acids 150-174 (peptide)
peptide: HTKEELKSLQAKDEDKDEDEKEKAA
modifications: also: biotin, position not given here
How did the Kd [3] turn out when B3 was run?
The Kd was 340 ± 90 nM.

B4: non-labeled UBE3A peptide residues 150-174 (peptide)
peptide: HTKEELKSLQAKDEDKDEDEKEKAA
For B4, which Kd [2] is on record?
Its Kd is under 100 nM.

B5: biotinylated full-length MBP-fused UBE3A protein (enzyme, human, UniProt Q05086-2 1-852, looked up)
chain: MKRAAAKHLIERYYHQLTEGCGNEACTNEFCASCPTFLRMDNNAAAIKALELYKINAKLCDPHPSKKGASSAYLENSKGAPNNSCSEIKMNKKGARIDFKDVTYLTEEKVYEILELCREREDYSPLIRVIGRVFSSAEALVQSFRKVKQHTKEELKSLQAKDEDKDEDEKEKAACSAAAMEEDSEASSSRIGDSSQGDNNLQKLGPDDVSVDIDAIRRVYTRLLSNEKIETAFLNALVYLSPNVECDLTYHNVYSRDPNYLNLFIIVMENRNLHSPEYLEMALPLFCKAMSKLPLAAQGKLIRLWSKYNADQIRRMMETFQQLITYKVISNEFNSRNLVNDDDAIVAASKCLKMVYYANVVGGEVDTNHNEEDDEEPIPESSELTLQELLGEERRNKKGPRVDPLETELGVKTLDCRKPLIPFEEFINEPLNEVLEMDKDYTFFKVETENKFSFMTCPFILNAVTKNLGLYYDNRIRMYSERRITVLYSLVQGQQLNPYLRLKVRRDHIIDDALVRLEMIAMENPADLKKQLYVEFEGEQGVDEGGVSKEFFQLVVEEIFNPDIGMFTYDESTKLFWFNPSSFETEGQFTLIGIVLGLAIYNNCILDVHFPMVVYRKLMGKKGTFRDLGDSHPVLYQSLKDLLEYEGNVEDDMMITFQISQTDLFGNPMMYDLKENGDKIPITNENRKEFVNLYSDYILNKSVEKQFKAFRRGFHMVTNESPLKYLFRPEEIELLICGSRNLDFQALEETTEYDGGYTRDSVLIREFWEIVHSFTDEQKRLFLQFTTGTDRAPVGGLGKLKMIIAKNGPDTERLPTSHTCFNVLLLPEYSSKEKLKERLLKAITYAKGFGML
modifications: biotin on the AviTag (in vivo biotinylation)
With B5 as the molecule, how does the Kd [4] read?
The Kd was 560 ± 150 nM.

B6: biotinylated MBP-fused HERC2 RLD2 domain (residues 2941-3342) (domain or fragment, human, UniProt O95714 2941-3342, looked up)
chain: T1 sequence (looked up)
modifications: biotin on the AviTag (in vivo biotinylation)
B6 was tested. Which Kd [5] did it give?
The Kd was 260 ± 40 nM.

And the Kd [6]?
Its Kd is < 100 nM and ~100 nM.

And the Kd [7]?
Its Kd is under 100 nM.

And the Kd [8]?
The Kd was 2600 ± 500 nM.

And the Kd [9]?
The Kd was about 100 nM.

B7: UBE3A peptide residues 160-174 (peptide, UniProt Q05086-2 160-174, looked up)
peptide: AKDEDKDEDEKEKAA
With B7 as the molecule, how does the Kd [2] read?
The Kd was 6850 ± 290 nM.

Source: article doi:10.1101/2025.09.16.670041 (bioRxiv, 2025)
